Assay results taken from US20210269521A1 (L AND L BIOPHARMA, published 2021).

What was measured:
[1] = biological target: T1, human PD-1 extracellular domain protein expressed in Example 1 (tag not stated) (human, UniProt Q15116 25-170); experiment: ELISA, PD-1 coated
T1 construct: extracellular domain; also called PD-1 protein; not shown: human IgG1 Fc or his tag
Procedure: (§1) PD-1 expressed in Example 1 was diluted to a concentration of 1 μg/ml with PBS buffer, pH 7.4, and added to a 96-well microplate (Corning, CLS3590-100EA) at 50 μl per well, thereby incubating in an incubator at 37° C. for 2 hours. After discarding the liquid, a blocking solution of 5% skimmed milk (Shanghai Shenggong Biological Engineering Co., Ltd., A600669-0250) diluted with PBS was added at 200 μl per well, followed by incubating at 37° C. for 3 hours or 4° C. overnight (16-18 hours)) for blocking. Subsequently, the blocking solution was discarded, and the microplate was washed 5 times with PBST buffer (pH 7.4 PBS containing 0.05% tween-20). […] Subsequently, the microplate was washed 5 times with PBST, then 50 μl/well of 1:2500 diluted HRP-labeled secondary antibody (Jackson Immuno Research, 115-035-003) was added, thereby incubating at 37° C. for 1 hour. After washing the microplate 5 times with PBST, 50 μl/well TMB chromogenic substrate (KPL, 52-00-03) was added, then incubated at room temperature for 5-10 min. Finally, 50 μl/well of 1M H₂SO₄ was added to stop the reaction. […] Go microplate reader (ThermoFisher, 51119200) was used to read the absorption value at 450 nm and the EC50 based on the OD value was calculated.
The above-mentioned TIM-3 and PD-1 bispecific antibodies of the present invention were optimized and designed using the methods of Example 2 and Example 5, and their affinity for TIM-3 and PD-1 were tested respectively.

[2] = biological target: T2, human TIM-3 extracellular domain-human IgG1 Fc fusion protein (human, UniProt Q8TDQ0 22-199); experiment: ELISA; PBS, 37°C 7 days
T2 construct: Made in house or bought (ACROBiosystems TM3-H5258); also called TIM-3-hFc; not shown: human IgG1 Fc

[3] = biological target: T1, human PD-1 extracellular domain protein …; experiment: ELISA; PBS, 37°C 7 days
[4] = biological target: T2, human TIM-3 extracellular domain-human …; experiment: ELISA; pH 5.5, 37°C 5 days
[5] = biological target: T1, human PD-1 extracellular domain protein …; experiment: ELISA; pH 5.5, 37°C 5 days
[6] = biological target: T2, human TIM-3 extracellular domain-human …; experiment: ELISA; pH 5.5, 40°C 5 days
[7] = biological target: T1, human PD-1 extracellular domain protein …; experiment: ELISA; pH 5.5, 40°C 5 days
[8] = biological target: T2, human TIM-3 extracellular domain-human …; experiment: ELISA; PBS, 0 day, against 0 day
[9] = biological target: T1, human PD-1 extracellular domain protein …; experiment: ELISA; PBS, 0 day, against 0 day
[10] = biological target: T2, human TIM-3 extracellular domain-human …; experiment: ELISA; 37°C 0 day, against 0 day
[11] = biological target: T1, human PD-1 extracellular domain protein …; experiment: ELISA; 37°C 0 day, against 0 day
[12] = biological target: T2, human TIM-3 extracellular domain-human …; experiment: ELISA; 40°C 0 day, against 0 day
[13] = biological target: T1, human PD-1 extracellular domain protein …; experiment: ELISA; 40°C 0 day, against 0 day
[14] = biological target: T2, human TIM-3 extracellular domain-human …; experiment: ELISA; pH 5.5, 0 day, against 0 day
[15] = biological target: T1, human PD-1 extracellular domain protein …; experiment: ELISA; pH 5.5, 0 day, against 0 day
[16] = biological target: T2, human TIM-3 extracellular domain-human …; experiment: ELISA; PBS, 37°C 7 days, against 0 day
[17] = biological target: T1, human PD-1 extracellular domain protein …; experiment: ELISA; PBS, 37°C 7 days, against 0 day
[18] = biological target: T2, human TIM-3 extracellular domain-human …; experiment: ELISA; pH 5.5, 37°C 10 days, against 0 day
[19] = biological target: T1, human PD-1 extracellular domain protein …; experiment: ELISA; pH 5.5, 37°C 10 days, against 0 day
[20] = biological target: T2, human TIM-3 extracellular domain-human …; experiment: ELISA; preparation buffer, 0 day, against 0 day
[21] = biological target: T1, human PD-1 extracellular domain protein …; experiment: ELISA; preparation buffer, 0 day, against 0 day
[22] = biological target: T1, human PD-1 extracellular domain protein …; experiment: ELISA, EC50 of bispecific over EC50 of the monoclonal control
Procedure: After washing the microplate 5 times with PBST, 50 μl/well TMB chromogenic substrate (KPL, 52-00-03) was added to the microplate, followed by incubating at room temperature for 10-15 min.
as §1

B1: bispecific antibody LB141 (bispecific antibody, human IgG4 S228P, kappa)
light: EIVLTQSPATLSLSPGERATLSCRASKGVSTSGYSYLHWYQQKPGQAPRLLIYLASYLESGVPARFSGSGSGTDFTLTISSLEPEDFAVYYCQHSRDLPLTFGGGTKVEIKRTVAAPSVFIFPPSDEQLKSGTASVVCLLNNFYPREAKVQWKVDNALQSGNSQESVTEQDSKDSTYSLSSTLTLSKADYEKHKVYACEVTHQGLSSPVTKSFNRGEC
heavy: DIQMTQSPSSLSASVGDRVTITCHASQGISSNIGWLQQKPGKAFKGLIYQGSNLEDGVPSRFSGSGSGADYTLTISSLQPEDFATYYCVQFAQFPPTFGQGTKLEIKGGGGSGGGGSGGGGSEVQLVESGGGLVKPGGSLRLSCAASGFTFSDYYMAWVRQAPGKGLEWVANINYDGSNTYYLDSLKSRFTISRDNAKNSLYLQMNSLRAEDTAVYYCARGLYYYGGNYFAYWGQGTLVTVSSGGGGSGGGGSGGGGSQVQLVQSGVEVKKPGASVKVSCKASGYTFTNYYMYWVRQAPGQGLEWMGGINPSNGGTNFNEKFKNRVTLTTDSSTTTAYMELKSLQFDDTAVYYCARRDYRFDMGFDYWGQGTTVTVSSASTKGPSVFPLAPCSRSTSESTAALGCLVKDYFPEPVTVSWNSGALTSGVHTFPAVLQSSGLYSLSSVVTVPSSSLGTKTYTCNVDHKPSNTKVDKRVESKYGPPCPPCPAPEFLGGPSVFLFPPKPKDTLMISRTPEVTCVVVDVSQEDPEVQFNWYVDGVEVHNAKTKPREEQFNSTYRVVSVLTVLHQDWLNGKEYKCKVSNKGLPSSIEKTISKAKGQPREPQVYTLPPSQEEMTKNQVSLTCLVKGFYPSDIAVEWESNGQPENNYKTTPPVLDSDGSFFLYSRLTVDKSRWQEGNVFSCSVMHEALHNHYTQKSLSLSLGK
notes: ab6VL-(G4S)3-ab6VH-(G4S)3-PemVH-hIgG4 with PemVL-κ
[1]
  EC50: 52 pM
[2]
  EC50: 325 pM
[3]
  EC50: 339 pM
[4]
  EC50: 334 pM
[5]
  EC50: 217 pM
[6]
  EC50: 341 pM
[7]
  EC50: 200 pM
[8]
  Fold change of EC50: 1 ratio
[9]
  Fold change of EC50: 1 ratio
[10]
  Fold change of EC50: 1 ratio
[11]
  Fold change of EC50: 1 ratio
[12]
  Fold change of EC50: 1 ratio
[13]
  Fold change of EC50: 1 ratio
[14]
  Fold change of EC50: 1 ratio
[15]
  Fold change of EC50: 1 ratio
[16]
  Fold change of EC50: 1.28 ratio
[17]
  Fold change of EC50: 1.16 ratio
[18]
  Fold change of EC50: 0.85 ratio
[19]
  Fold change of EC50: 1.1 ratio
[20]
  Fold change of EC50: 1 ratio
[21]
  Fold change of EC50: 1 ratio
[22]
  Multiple of EC50 variation: 1.32 ratio
